From US20220193132A1 (NATIONAL RESEARCH COUNCIL OF CANADA, published 2022)

What was measured:
[1] = molecular target: T1, wild type human EGFR, full length, overexpressed on U87MG cells (human, UniProt P00533 25-1210); test: flow cytometry dose-response, U87MG EGFR wt cells
T1 construct: also called U87MG-EGFR wt; U87 WT
Method: (§1) Prior to analysis, cells were plated such that they were not more than 80% confluent on the day of analysis. Unless otherwise stated, all media are kept are 4° C. and all incubations are performed on wet ice. Cells were washed in PBS, harvested by the addition of cell dissociation buffer (Sigma), centrifuged and resuspended in complete medium at a cell density of 2×10⁶ cells/mL. Fifty μL/well of cells were distributed in a polypropylene v-bottom 96 well plate and serial 1/3 dilutions of purified mAbs starting at 100 nM were added and incubated for 2 hours. […] Cells were washed and re-suspended in medium containing Propidium iodide to exclude dead cells from analysis. Samples were filtered through a 60 μm nylon mesh filter plate (Millipore, Ireland) to remove cell aggregates. Flow cytometry analyses were performed on 2,000 viable single-cells events gated on forward scattering, side scattering parameters and propidium iodide dye exclusion using a BD-LSRFortessa flow cytometer (Becton-Dickinson Biosciences, CA, USA) and a standard filter set using BD FACSDiva™ acquisition software, according to manufacturer's instructions.
(§2) Specific detection of antibody binding was calculated as the mean fluorescent intensity of binding to each primary antibody after background level subtraction of the mean fluorescent intensity of binding of mouse IgG control. The data were analyzed with GraphPad Prism v 6.0 software using one-site specific binding with Hill slope non-linear regression curve fit model to determine Bmax (maximum specific binding) and Kdₐₚₚ (concentration needed to achieve a half-maximum binding at equilibrium) for each mAb tested.

[2] = molecular target: T2, EGFRvIII, full length, overexpressed on glioblastoma cells (human, UniProt P00533 298-623); test: flow cytometry dose-response on DKMG EGFRvIII cells, apparent Kd (n=1)
T2 construct: Cells overexpress full length EGFRvIII (deletion of exons 2-7 of EGFR); Cell line (U87MG or DKMG) is named under assay; also called U87MG-EGFRvIII; U87vIII
Method: as §1
(§3) These cells were grown in RPMI and 10% fetal bovine serum using standard culturing conditions.

[3] = molecular target: T2, EGFRvIII, full length, overexpressed on …; test: flow cytometry dose-response on DKMG EGFRvIII cells (n=1)
Method: as §1, §3

[4] = molecular target: T2, EGFRvIII, full length, overexpressed on …; test: flow cytometry dose-response on U87MG EGFRvIII cells, apparent Kd (n=3)
Method: Prior to analysis, cells were plated such that they were not more than 80% confluent on the day of analysis. Unless otherwise stated, all media are kept are 4° C. and all incubations are performed on wet ice. Cells were washed in PBS, harvested by the addition of cell dissociation buffer (Sigma), centrifuged and resuspended in complete medium at a cell density of 2×10⁶ cells/mL. Fifty μL/well of cells were distributed in a polypropylene v-bottom 96 well plate and serial 1/3 dilutions of purified mAbs starting at 100 nM were added and incubated for 2 hours. […] Cells were washed and re-suspended in medium containing Propidium iodide to exclude dead cells from analysis. Samples were filtered through a 60 μm nylon mesh filter plate (Millipore, Ireland) to remove cell aggregates. […]
as §2

[5] = molecular target: T3, recombinant human wild type EGFR protein (extracellular domain), native (human, UniProt P00533 25-645); test: ELISA on recombinant antigen
T3 construct: also called wt EGFR; EGFR WT
Method: (§4) Pre- and post-immune sera titers of animals were assessed by ELISA on recombinant EGFRvIII protein. Unless otherwise stated, all incubations were performed at room temperature. […] Microplates were washed three times in PBS and blocked for 30 min with PBS containing 1% bovine serum albumin (BSA, Sigma Cat #A7030). Blocking buffer was removed and 25 μl of serial dilutions of sera samples were added. […] After a 1-h incubation, microplates were washed 4 times and 25 μl of p-nitrophenyl phosphate (pNPP) substrate (Sigma-Aldrich Canada Co., Oakville, ON) at 1 mg/ml in carbonate buffer at pH 9.6 was added and further incubated for 30 min.
(§5) Antigens at 1-2 mg/ml were incubated at 95° C. for 5 min in PBS containing DTT at a final concentration of 40 mM. They were then incubated on ice for 5 min and diluted at their final coating concentration for ELISA purpose.
(§6) ELISA was performed as described above (serum titer determination) using 25 μl of mAb supernatant (Exp 1) or purified mAb at 1 μg/ml (Exp 2).

[6] = molecular target: T4, recombinant human wild type EGFR protein (extracellular domain), denatured (human, UniProt P00533 25-645); test: ELISA on recombinant antigen
T4 construct: Same protein as m23 after 95 C for 5 min in PBS with 40 mM DTT (denatured, reduced); also called wt EGFR Denatured
Method: as §4, §5, §6

[7] = molecular target: T5, recombinant human EGFRvIII protein (extracellular domain), native (human, UniProt P00533 298-623); test: ELISA Exp 2, purified mAb 1 ug/ml;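 also: ELISA of purified mAb binding to plate-coated antigen, native or heat/DTT-denatured, with pNPP substrate developed for 30 min and incubations at room temperature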
T5 construct: also called hEGFRvIII
Method: as §4, §5, §6

[8] = molecular target: T3, recombinant human wild type EGFR …; test: ELISA Exp 2, purified mAb 1 ug/ml;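 also: ELISA of purified mAb binding to plate-coated antigen, native or heat/DTT-denatured, with pNPP substrate developed for 30 min and incubations at room temperature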
Method: as §4, §5, §6

[9] = molecular target: T6, recombinant human EGFRvIII protein (extracellular domain), denatured (human, UniProt P00533 298-623); test: ELISA Exp 2, purified mAb 1 ug/ml;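 also: ELISA of purified mAb binding to plate-coated antigen, native or heat/DTT-denatured, with pNPP substrate developed for 30 min and incubations at room temperature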
T6 construct: Same protein as m21 after 95 C for 5 min in PBS with 40 mM DTT (denatured, reduced); also called EGFRvIII Denatured
Method: as §4, §5, §6

[10] = molecular target: T4, recombinant human wild type EGFR …; test: ELISA Exp 2, purified mAb 1 ug/ml;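 also: ELISA of purified mAb binding to plate-coated antigen, native or heat/DTT-denatured, with pNPP substrate developed for 30 min and incubations at room temperature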
Method: as §4, §5, §6

[11] = molecular target: T5, recombinant human EGFRvIII protein …; test: ELISA Exp 1, mAb supernatant
Method: as §4, §5, §6

[12] = molecular target: T3, recombinant human wild type EGFR …; test: ELISA Exp 1, mAb supernatant
Method: as §4, §5, §6

[13] = molecular target: T6, recombinant human EGFRvIII protein …; test: ELISA Exp 1, mAb supernatant
Method: as §4, §5, §6

[14] = molecular target: T4, recombinant human wild type EGFR …; test: ELISA Exp 1, mAb supernatant
Method: as §4, §5, §6

[15] = molecular target: T1, wild type human EGFR, full length, …; test: flow cytometry dose-response, U87MG-EGFRwt cells
Method: as §1, §2

[16] = molecular target: T2, EGFRvIII, full length, overexpressed on …; test: flow cytometry dose-response on U87MG-EGFRvIII cells, apparent Kd
Method: as §1, §2

| Binder | binding result [1] | Kd [2] [nM] | Bmax [3] | Kd [4] [nM] | binding result [5] | binding result [6] | ELISA absorbance 405 nm [7] [A405] | ELISA absorbance 405 nm [8] [A405] | ELISA absorbance 405 nm [9] [A405] | ELISA absorbance 405 nm [10] [A405] | ELISA absorbance 405 nm [11] [A405] | ELISA absorbance 405 nm [12] [A405] | ELISA absorbance 405 nm [13] [A405] | ELISA absorbance 405 nm [14] [A405] | binding result [15] | Kd [16] [nM] |
| --- | --- | --- | --- | --- | --- | --- | --- | --- | --- | --- | --- | --- | --- | --- | --- | --- |
| hFc-4E11 (antibody, human IgG1, kappa, V domains shown, Chimeric antibody, mouse variable regions on human IgG1 / human kappa, produced in CHO cells; also called chimeric 4E11) VH: DVQLQESGPGLVKPSQSLSLTCTVTGYSITSDYAWNWIRQFPGNKLEWMGYIGYNGRTSYNPSLKSRISITRDTSKNQFFLQLNYVTTEDTATFYCARLGRGFAYWGQGTLVTVSA VL: DILMTQSPSSMSVSLGDTVSITCHASQGINSNIGWLLQKPGKSFKGLIYHGTNLEDGVPSRFSGSGSGTDYSLTISSLESEDFADYYCVQYAQFPYTFGGGTKLEIKR | no binding | 1.43 | 12100 | 2.6 |  |  |  |  |  |  |  |  |  |  |  |  |
| 13.1.2 mIgG1 (antibody, V domains shown) VH: QVQLVESGGGVVQPGRSLRLSCAASGFTFSSYGMHWVRQAPGKGLEWVAVIWYDGSNKYYVDSVKGRFTISRDNSKNTLYLQMNSLRAEDTAVYYCARDGWQQLAPFDYWGQGTLVTVSS VL: not shown |  |  |  |  | no binding | no binding | 1.67 | 0.003 | 1.71 | 0.005 | 1.1 | 0.011 | 1.91 | 0.003 | no binding (tested: 100 nM highest concentration) | 4.3 |
| 13.1.2 mIgG2a (antibody, V domains shown) VH: QVQLVESGGGVVQPGRSLRLSCAASGFTFSSYGMHWVRQAPGKGLEWVAVIWYDGSNKYYVDSVKGRFTISRDNSKNTLYLQMNSLRAEDTAVYYCARDGWQQLAPFDYWGQGTLVTVSS VL: not shown |  |  |  |  | no binding | no binding | 1.49 | 0.003 | 1.5 | 0.002 | 1.29 | 0.009 | 2.09 | 0.007 | no binding (tested: 100 nM highest concentration) | 4.2 |
